Drawing on paper PMC5514047, this text covers stoichiometry N for one substance.

This assay deals with human ribosomal stalk protein P2 lacking the last 16 amino acids (P2ΔC) (human) (UniProt P05387). Put plainly: native MS.

“human ribosomal stalk protein P2 lacking the last 16 amino acids (P2ΔC) (from UniProt P05387 1-99) (domain or fragment)” showed a stoichiometry N of 2.

For orientation: stoichiometry N means a count of units in the complex or per binding partner.
